Measured values from IntAct's records for PubMed 16908849.

B1: Tumor protein 63 (Homo sapiens), Q9H3D4 (parent)
chain: MNFETSRCATLQYCPDPYIQRFVETPAHFSWKESYYRSTMSQSTQTNEFLSPEVFQHIWDFLEQPICSVQPIDLNFVDEPSEDGATNKIEISMDCIRMQDSDLSDPMWPQYTNLGLLNSMDQQIQNGSSSTSPYNTDHAQNSVTAPSPYAQPSSTFDALSPSPAIPSNTDYPGPHSFDVSFQQSSTAKSATWTYSTELKKLYCQIAKTCPIQIKVMTPPPQGAVIRAMPVYKKAEHVTEVVKRCPNHELSREFNEGQIAPPSHLIRVEGNSHAQYVEDPITGRQSVLVPYEPPQVGTEFTTVLYNFMCNSSCVGGMNRRPILIIVTLETRDGQVLGRRCFEARICACPGRDRKADEDSIRKQQVSDSTKNGDGTKRPFRQNTHGIQMTSIKKRRSPDDELLYLPVRGRETYEMLLKIKESLELMQYLPQHTIETYRQQQQQQHQHLLQKQTSIQSPSSYGNSSPPLNKMNSMNKLPSVSQLINPQQRNALTPTTIPDGMGANIPMMGTHMPMAGDMNGLSPTQALPPPLSMPSTSHCTPPPPYPTDCSIVSFLARLGCSSCLDYFTTQGLTTIYQIEHYSMDDLASLKIPEQFRHAIWKGILDHRQLHEFSSPSHLLRTPSSASTVSVGSSETRGERVIDAVRFTLRQTISFPPRDEWNDFNFDMDARRNKQQRIKEEGE

Variants of: B1
Conditions: with itch_human ITCH

effect of a mutation on the interaction | Variant
disrupting interaction strength | Y543F
